Measurements from the RNAGym collection of RNA variant scans (doi:10.1073/pnas.2313332121).

B1: TPR t1 (parent)
chain: GACCAAUCUGCCCUCAGAGCUCGAGAACAUCUUCGGAUGCAGAGGAGGCAGGCUUCGGUGGCGCGAUAGCGCCAACGUCCUCAACCUCCAAUGCAUCCCACCACAUGAUGAUGCCUGAAGAGCCUUGGUUUUUUG

Variants of: B1
Experiment: polymerase ribozyme fitness, log enrichment relative to wild type (log ratio); higher = more active; in vitro selection for triplet polymerase activity
Method in brief: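 Genotype fitness is the logarithm of its enrichment divided by wild-type enrichment, using inverse-variance-weighted averages of replicates. That logarithm is base 2. Enrichment was measured by Illumina sequencing of input and output libraries from one triplicate in vitro selection round, with frozen incubation at −7 °C, on PCR-built, transcribed mutant libraries of each subunit of a heterodimeric triplet polymerase ribozyme, retaining genotypes with ≥10 input reads and ≥1 read per output.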

Row | Variant | polymerase ribozyme fitness (log ratio)
1 | C12U G19A G45U | -2.71
2 | C12U C13U C79G | -1.13
3 | C12A C72U C98A | -6.65
4 | C12A U116A C124A | -0.089
5 | C12U A29G G71U G128A | -3.03
6 | C12G A41G C72U C102U | -2.31
7 | C12U C94U U112C | 1.32
8 | C12U A91U G135U | -2.33
9 | C12G A74U | -0.266
10 | C12U C89U A100C U133G | -1.42
11 | C12A C22A G52A A84U A91C G120C | -6.58
12 | C12U C34A U132A | -1.35
13 | C12G G60A C85G G117A U131A | -1.29
14 | C12A C34A G45A G71C | -6.58
15 | C12G C98U A119G | 0.523
16 | C12A G35A C49A | -5.9
17 | C12U C22G U38A C79U G122A | -3.65
18 | C12G C85G | -1.08
19 | C12U A29G C73G U92C C94A | -5.22
20 | C12A G48C U54C A83C C88A | -2.86
21 | C12G A37C A41U C79A | -3.13
22 | C12U C85G | -0.35
23 | C12G C49G U54A | -0.423
24 | C12A U14G G71U | -2.39

Row | Variant | polymerase ribozyme fitness (log ratio)
25 | C12U G19U A90C | -2.37
26 | C12U C49G C97A A111U | -5.43
27 | C12U C80U | -0.606
28 | C12G G120C A121G | -1.12
29 | C12U C49G | -0.764
30 | C12U A27C | -2.1
31 | C12U C15G G63U G120U | -0.846
32 | C12A G19A C20A C53U C89A | -3.61
33 | C12U C72A C80U | -0.362
34 | C12U C72G | 0.149
35 | C12U C72U | -0.537
36 | C12U A27C C49A | -2.06
37 | C11U U30G G120C | -5.71
38 | C12A G47A C102G A111C A118C U129C | -7.59
39 | C12U C31G A37G G45U A50C G51U C102A G117U | -7.15
40 | C12G U30C A41U G48A | -5.05
41 | C12A A74G C123A U131A | 2.13
42 | C12U C13U C40G C76A G77A U131C | -0.917
43 | C12G C28U A66C C72U A84C | -3.81
44 | C12U C53U C80G C82U A90G | -2.24
45 | C12A C62G C72G | -6.48
46 | C12U A43U | -1.51
47 | C12U C97U | -0.793
48 | C12U G39C C64U A84U | -0.905

Row | Variant | polymerase ribozyme fitness (log ratio)
49 | C12G G36C A43C G63C | -4.59
50 | C12U C56A G63U C89U C124A | -4.63
51 | C12G C28U C53A | -2.29
52 | C12G A108G | -1.2
53 | C12U G23A U130C | -5.34
54 | C12G C94U G110C G127C | -4.48
55 | C11U U81A | -2.1
56 | C12A U14G | -1.01
57 | C11U U32C C70U C98U C124G | -1.48
58 | C11U U14A A84G | -4.24
59 | C12U C13A A27G G93A | -5.78
60 | C12U C73U | 0.0527
61 | C12U C73A | 0.441
62 | C12U G45U G77C | -0.677
63 | C12U A18C | -1.45
64 | C12A G44C C64U U125G | -2.52
65 | C12A G39U | -1.1
66 | C12A G69A | -2.89
67 | C12A G69U | -0.288
68 | C12A U81C | -1.73
69 | C12A G47U G60A U78A | -2.01
70 | C12A A105G C124U | -0.99
71 | C12G C13A C72G C124U | -0.0514
72 | C12U A26U G93U | -3.6

Row | Variant | polymerase ribozyme fitness (log ratio)
73 | C12A U32C G107A G120A | -3.32
74 | C12G G57A G61U C80A | -2.05
75 | C12U A50G A74U U78C G93A | -1.93
76 | C12G C20G C56U C79U C82U A91U G107C G117A | -3.77
77 | C12U C56A G69A | -2.89
78 | C12A C99G G110U | -6.29
79 | C12G G71C U96A A108G C123G | -4.58
80 | C12G G17U G57C C62A C115G U129C U132C | -3.27
81 | C12U C70U C97A | -5.44
82 | C12G U32A A37U | -3.65
83 | C12A A84U | -1.96
84 | C12U C62U C70G G93A | -5.44
85 | C12U G45A | -1.24
86 | C12U G45U | -0.901
87 | C12G A46G G63C C115G | -4.6
88 | C12U C53G A90C | -1.61
89 | C12A U81A U133A | -1.05
90 | C12U C31G | -5.12
91 | C12U A50C C64U A66G U81C | -4.8
92 | C12A C123G | 1.19
93 | C12U C40U G42C C80A C88G C102A A111G C123U U134G | -6.19
94 | C12G C53A G71U G107C U112C | -4.39
95 | C12A C98U G110C U131A | -6.2
96 | C12A C85U | -1.04

Row | Variant | polymerase ribozyme fitness (log ratio)
97 | C12A A29U | -1.98
98 | C12U C89G | -0.883
99 | C12G C56G C70G | -3.6
100 | C12U C123U | 1.71
101 | C12G C20U G36A G71A C80U C82A C88A G120U U126C | -5.21
102 | C12U C70U G71A | -0.916
103 | C12A G71A | -1.07
104 | C12U C80G G128C U130C | -4.44
105 | C12U C40U G69C A91U C101U A121C | -2.89
106 | C12A G35U C40U G45A C53G G63C G117C G127U | -6.85
107 | C12A C49A C88A G110U | -1.74
108 | C12A A46U G47C | -1.36
109 | C12A U21C A83C | -0.123
110 | C12U C20U C22A G45U C70U A83U A118U | -6.7
111 | C12G C62U | 0.0184
112 | C12A A24G A41U G71C C88U A90G C123G | -4.92
113 | C12G U55A C70U G113C | -3.9
114 | C12A G48C U116G | -5.7
115 | C12U C49A A50C A95C | -1.09
116 | C12G C40U A43U A83U A105C C124G | -5.47
117 | C12G U14A U38G C76U C85G | -3.19
118 | C12A C64U | -0.93
119 | C12A A37C A46C C88U | -2.57
120 | C12A C20A G61C | -4.95

Row | Variant | polymerase ribozyme fitness (log ratio)
121 | C12A A41G G61U G117C G135C | -4.3
122 | C12A A37U A68G C114G | -6.56
123 | C12U C40G | -0.0831
124 | C12G C31U G61A | -5.13
125 | C12U C73A C104A | -0.305
126 | C12U G19U A43U C64G A95C G117U | -7.83
127 | C12G G93A C94U | -1.83
128 | C12G G42U C49A G113C U132A | -2.5
129 | C12U G42U A84C U116A | -3.42
130 | C12G A27G C64U C104U | -2.48
131 | C12G A37U A105C U112C | -0.116
132 | C12A C20A G61A C88U U116C | -4.6
133 | C12A A24U U32A C99A U116C U130G | -7.85
134 | C12A U32G C53A C89U C114A | -8.31
135 | C12A C20U A26C G48A C49A A121G U133A | -5.75
136 | C12U C13U A50U U78G U131C | -0.743
137 | C11U U55G | -2.15
138 | C12A U130C U131C | -0.148
139 | C12G G36U C56U A121U G122U | 0.307
140 | C12G A29U C56U A118C C123G | -0.961
141 | C12U G36A A83C U106A U129C G135U | -1.4
142 | C12U C34A G71U U78G U125A | -3.95
143 | C12G U14G G57A G113U | -7.24
144 | C12G A46G G128C U131A | -2.32

Row | Variant | polymerase ribozyme fitness (log ratio)
145 | C12A A29U C49U A74G C123A U131A | -1.45
146 | C11U U32A A46C G48A C72G U112G | -5.51
147 | C12G A16G C53A C80U | -5.01
148 | C12A A18C A29G C72A | -2.28
149 | C12U C15U G17A C64U A83C C85A G117U | -2.73
150 | C12G G19U C72U | -6.54
151 | C12U A46C G52U | -0.969
152 | C12A C53U A83C U106G G113U | -6.76
153 | C12G G61A C62G U87A G113U U125G | -7.34
154 | C12G C72G C104U C123U C124A | 2.06
155 | C12U C15U G45U G69C C82A C101U | -2.95
156 | C12A C49A G61A C82A | -0.648
157 | C12A A41G G63A | -2.29
158 | C12U G44U G47C C89A A90C U116A U131G | -3.02
159 | C12A C40A C70G | -4.57
160 | C12A A41U G48A G77U A83G | -2.82
161 | C12A A46C G60A C82G | -1.19
162 | C12G C80U | 0.429
163 | C12U A46C G47U C86A A108G | -1.87
164 | C12U A91U | -1.85
165 | C12U C22G G45A G71A C94U C99U | -4.76
166 | C12G G35A A74U | -4.41
167 | C12G C72U A100C | -1.28
